Measurements published in patent publication US20140287989A1 (CENTRE NATIONAL DE LA RECHERCHE SCIENTIFIQUE, published 2014).
Several values for one entry are separate records, joined by “and”; a condition that tells them apart may be missing. Identical values can stand only once. Square brackets hold non-standard residues; d marks the D form. Phe(3,4-Cl2) = N[C@@H](Cc1ccc(Cl)c(Cl)c1)C(=O)O; Phe(4-Br) = N[C@@H](Cc1ccc(Br)cc1)C(=O)O; Phe(4-Cl) = N[C@@H](Cc1ccc(Cl)cc1)C(=O)O; Phe(4-Me) = Cc1ccc(C[C@H](N)C(=O)O)cc1; hCha = N[C@@H](CCC1CCCCC1)C(=O)O; Cha = N[C@@H](CC1CCCCC1)C(=O)O

Assays:
[1] = target: E. coli β clamp (β subunit of DNA polymerase III, dnaN gene product) (E. coli) (UniProt P0A988); assay: SPR competition: peptide with β ring injected on immobilized P1
[2] = target: E. coli β clamp (β subunit of DNA polymerase III, dnaN gene product), N-tagged (E. coli) (UniProt P0A988); assay: ITC, peptide 400 µM into β ring 20 or 30 µM, 25° C
[3] = target: E. coli β clamp (β subunit of DNA polymerase III, dnaN gene product), N-tagged (E. coli) (UniProt P0A988)
[4] = target: E. coli β clamp (β subunit of DNA polymerase III, dnaN gene product) (E. coli) (UniProt P0A988); assay: SPR competition, concentration of peptide that challenges 50% of the binding of β ring to P1
[5] = target: E. coli β clamp (β subunit of DNA polymerase III, dnaN gene product), N-tagged (E. coli) (UniProt P0A988); assay: SPR competition against P1
[6] = target: E. coli β clamp (β subunit of DNA polymerase III, dnaN gene product), N-tagged (E. coli) (UniProt P0A988); assay: SPR competition against P1, ratio of IC50 values; written as printed, the two labels seem exchanged against Table 14 and paragraph 151
[7] = target: E. coli β clamp (β subunit of DNA polymerase III, dnaN gene product), N-tagged (E. coli) (UniProt P0A988); assay: SPR competition (Biacore 3000): β ring 0.25 µM mixed with the challenger, injected on immobilised P1
[8] = target: E. coli β clamp (β subunit of DNA polymerase III, dnaN gene product), N-tagged (E. coli) (UniProt P0A988); assay: SPR competition on immobilised P1
[9] = target: E. coli β clamp (β subunit of DNA polymerase III, dnaN gene product), N-tagged (E. coli) (UniProt P0A988); assay: SPR competition on immobilised P1; ΔG = -RT ln Ki
[10] = target: T1, E. coli β clamp (β subunit of DNA polymerase III, dnaN gene product) (E. coli, UniProt P0A988 1-366); assay: SPR competition: peptide with β ring injected on immobilized P1
T1 construct: Homodimeric ring; N-tagged protein expressed in BL21 E. coli and purified on Ni-NTA and MonoQ; also called β ring; β protein; not shown: N-terminal tag from the pET15b plasmid

[11] = target: T1, E. coli β clamp (β subunit of DNA …); assay: as above; remark: listed apart in the source
[12] = target: T1, E. coli β clamp (β subunit of DNA …); assay: SPR competition; ΔG = -RT ln Ki
[13] = target: T1, E. coli β clamp (β subunit of DNA …); assay: SPR competition: peptide with β ring injected on immobilized P1; remark: listed apart in the source
[14] = target: T2, E. coli β clamp (β subunit of DNA polymerase III, dnaN gene product), N-tagged (E. coli, UniProt P0A988 1-366); assay: SPR competition on immobilised P1; ΔG = -RT ln Ki
T2 construct: The dnaN gene was cloned in pET15b and expressed in BL21 E. coli; also called β ring; β protein; not shown: N-terminal tag from the pET15b vector (N-tagged protein, enriched on Ni-NTA)

[15] = target: T3, E. coli β clamp (β subunit of DNA polymerase III, dnaN gene product) (E. coli, UniProt P0A988 1-366); assay: ITC, peptide 400 µM into β ring 30 µM, 25 °C, second experiment
T3 construct: Expressed in BL21 E. coli from pET15b with an N-terminal tag; also called β ring; β protein; not shown: N-terminal tag from plasmid pET15b ('N-tagged protein', purified on Ni-NTA)

[16] = target: T3, E. coli β clamp (β subunit of DNA …); assay: ITC, peptide 400 µM into β ring 30 µM, 25 °C
[17] = target: T3, E. coli β clamp (β subunit of DNA …); assay: SPR competition, β ring on immobilised P1
[18] = target: T2, E. coli β clamp (β subunit of DNA …); assay: SPR competition on immobilised P1
[19] = target: T2, E. coli β clamp (β subunit of DNA …); assay: cell-based or functional assay

E. coli β clamp (β subunit of DNA polymerase III, dnaN gene product), N-tagged (E. coli), sequence (P0A988 whole entry): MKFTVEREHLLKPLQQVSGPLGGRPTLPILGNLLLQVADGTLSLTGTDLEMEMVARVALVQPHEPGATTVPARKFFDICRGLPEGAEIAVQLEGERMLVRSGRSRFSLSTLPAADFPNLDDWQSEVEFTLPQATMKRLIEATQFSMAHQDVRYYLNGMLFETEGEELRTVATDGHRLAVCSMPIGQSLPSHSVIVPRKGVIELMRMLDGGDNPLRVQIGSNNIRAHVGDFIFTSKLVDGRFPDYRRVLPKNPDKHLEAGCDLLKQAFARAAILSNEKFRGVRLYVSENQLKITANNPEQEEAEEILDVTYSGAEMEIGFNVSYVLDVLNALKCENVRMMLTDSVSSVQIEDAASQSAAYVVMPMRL
E. coli β clamp (β subunit of DNA polymerase III, dnaN gene product) (E. coli), sequence (P0A988 whole entry): as above
T2 sequence (P0A988 whole entry): as above

For P18, Ac Q Cha D hCha F (peptide), the IC50 [1] was 720 nM.

P19, Ac Q ChaD NptGly F (peptide) showed an IC50 [1] of 5630 nM.

P13 (Ac-Q Cha DL pBrF) (peptide) was tested, and the Kd [2] was 150 nM and the IC50, Pol IV based biochemical assay (inhibition of β dependent Pol IV elongation) [3] was 250 nM.

“P14-5 (Cin R Q Cha N L diClF) (peptide; other documents disagree on this pair)” showed a Ki [4] of 3250 nM.

“P21, Ac-Q Cha DLW (peptide; other documents disagree on this pair)” showed an IC50 [1] of 640 nM.

In the case of P17, Ac Q Cha D Cha F (peptide), the IC50 [1] is reported as 310 nM.

Work on P11 (Ac-Q Cha DL pMeF) (peptide) yielded a Kd [2] of 380 nM and an IC50, Pol IV based biochemical assay (inhibition of β dependent Pol IV elongation) [3] of 2000 nM.

Molecule P22, Ac-Q Cha DL Atda (peptide) has an IC50 [1] of 3720 nM.

With “P23, Ac-QFDLF (peptide; other documents disagree on this pair)” the IC50 [1] was 31600 nM.

Molecule P3 (RQLVLF) (peptide) has an IC50, Pol IV based biochemical assay (inhibition of β dependent Pol IV elongation) [3] of 7000 nM.

For P14-7 (Ac R Q Cha R L F) (peptide), the affinity ratio against P7 [5] was over 50 fold and the affinity ratio against P7 [6] was 5 fold.

P12 (Ac-Q Cha DL pClF) (peptide) gave a Kd [2] of 100 nM and an IC50, Pol IV based biochemical assay (inhibition of β dependent Pol IV elongation) [3] of 300 nM.

“P4 (RQLVFL) (peptide; other documents disagree on this pair)” was tested, and the IC50 [7] was 256000 nM.

For P16, Ac Q Cha D hLeu F (peptide), the IC50 [1] was 230 nM.

In the case of “P2 (RQLVLL) (peptide; other documents disagree on this pair)”, the fold decrease in interaction against P1 [8] is reported as 2 fold and 3 fold, the ΔG [9] is reported as -6.54 kcal/mol and the IC50 [7] is reported as 21500 nM.

“P14-8 (Ac R Q Cha K L F) (peptide; other documents disagree on this pair)” was tested, and the Ki [5] was 1000 nM, the fold decrease in affinity against P14 [5] was 10 fold and the affinity ratio against P7 [6] was 50 fold. The Ki [4] was 904 nM.

For P20, Ac-Q Cha DL Cha (peptide), the IC50 [1] was 410 nM.

B1: P12, Ac-Gln-Cha-Asp-Leu-pClPhe-OH (peptide)
peptide: Ac-Q[Cha]DL[Phe(4-Cl)]-OH
SMILES: CC(=O)N[C@@H](CCC(N)=O)C(=O)N[C@@H](CC1CCCCC1)C(=O)N[C@@H](CC(=O)O)C(=O)N[C@@H](CC(C)C)C(=O)N[C@@H](Cc1ccc(Cl)cc1)C(=O)O
notes: X stands for Cha; the substituted phenylalanine is written F; also called Ac-Q Cha DL pClF
With B1 the IC50 [10] was 160 nM, the IC50 [11] was 160 nM and the ΔG [12] was -9.73 kcal/mol.

With H-QLDLF-OH (also called QLDLF) [P5, H-Gln-Leu-Asp-Leu-Phe-OH] the ΔG [12] was -6.87 kcal/mol.

B2: P8, Ac-Gln-hCha-Asp-Leu-Phe-OH (peptide)
peptide: Ac-Q[hCha]DLF-OH
SMILES: CC(=O)N[C@@H](CCC(N)=O)C(=O)N[C@@H](CCC1CCCCC1)C(=O)N[C@@H](CC(=O)O)C(=O)N[C@@H](CC(C)C)C(=O)N[C@@H](Cc1ccccc1)C(=O)O
notes: X stands for the non-natural residue; also called Ac Q hCha DLF
Work on B2 yielded an IC50 [11] of 82800 nM, a ΔG [12] of -5.74 kcal/mol and an IC50 [13] of 82800 nM.

In the case of QLDLF [P5 (QLDLF)], the ΔG [14] is reported as -6.87 kcal/mol.

Ac-QLDLF-OH (also called AcQLDLF) [P6, Ac-Gln-Leu-Asp-Leu-Phe-OH] gave a ΔG [12] of -8.22 kcal/mol.

B3: P11, Ac-Gln-Cha-Asp-Leu-pMePhe-OH (peptide)
peptide: Ac-Q[Cha]DL[Phe(4-Me)]-OH
SMILES: CC(=O)N[C@@H](CCC(N)=O)C(=O)N[C@@H](CC1CCCCC1)C(=O)N[C@@H](CC(=O)O)C(=O)N[C@@H](CC(C)C)C(=O)N[C@@H](Cc1ccc(C)cc1)C(=O)O
notes: X stands for Cha; the substituted phenylalanine is written F; also called Ac-Q Cha DL pMeF
For B3, the IC50 [10] was 260 nM, the IC50 [11] was 260 nM and the ΔG [12] was -9.44 kcal/mol.

With Ac-QLDLF-OH (also called Ac-Gln-Leu-Asp-Leu-Phe-OH) [P6 (AcQLDLF), listing 1 of 2 here] the Kd [15] was 613 nM, the ΔG [15] was -8.3 kcal/mol and the ΔH [15] was -11.1 kcal/mol. It also gave a ΔS [15] of -9.08 cal/mol/deg, a Kd [16] of 820 nM and a ΔH [16] of -11.3 kcal/mol. For the same molecule, the ΔS [16] was -10.4 cal/mol/deg.

B4: P13, Ac-Gln-Cha-Asp-Leu-pBrPhe-OH (peptide)
peptide: Ac-Q[Cha]DL[Phe(4-Br)]-OH
SMILES: CC(=O)N[C@@H](CCC(N)=O)C(=O)N[C@@H](CC1CCCCC1)C(=O)N[C@@H](CC(=O)O)C(=O)N[C@@H](CC(C)C)C(=O)N[C@@H](Cc1ccc(Br)cc1)C(=O)O
notes: X stands for Cha; the substituted phenylalanine is written F; also called Ac-Q Cha DL pBrF
Molecule B4 has an IC50 [10] of 100 nM, an IC50 [11] of 96 nM and a ΔG [12] of -9.71 kcal/mol.

B5: P1, natural C-terminal heptapeptide of E. coli DNA polymerase IV (RQLVLGL) (peptide)
peptide: H-RQLVLGL-OH
notes: Free peptide in ITC; also called H-Arg-Gln-Leu-Val-Leu-Gly-Leu-OH
B5 showed a Kd [15] of 2010 nM, a ΔG [15] of -7.7 kcal/mol and a ΔH [15] of -5.5 kcal/mol. The ΔS [15] was 7.6 cal/mol/deg, the IC50 [17] was 8850 nM and the Kd [16] was 1580 nM. It also gave a ΔG [16] of -7.9 kcal/mol, a ΔH [16] of -4.09 kcal/mol and a ΔS [16] of 12.8 cal/mol/deg.

B6: E. coli DNA polymerase IV (enzyme)
chain: MRKIIHVDMDCFFAAVEMRDNPALRDIPIAIGGSRERRGVISTANYPARKFGVRSAMPTGMALKLCPHLTLLPGRFDAYKEASNHIREIFSRYTSRIEPLSLDEAYLDVTDSVHCHGSATLIAQEIRQTIFNELQLTASAGVAPVKFLAKIASDMNKPNGQFVITPAEVPAFLQTLPLAKIPGVGKVSAAKLEAMGLRTCGDVQKCDLVMLLKRFGKFGRILWERSQGIDERDVNSERLRKSVGVERTMAEDIHHWSECEAIIERLYPELERRLAKVKPDLLIARQGVKLKFDDFQQTTQEHVWPRLNKADLIATARKTWDERRGGRGVRLVGLHVTLLDPQMERQLVLGL
notes: Called the whole polymerase / the full PolIV enzyme; construct and tags not described; also called PolIV; Pol IV
Molecule B6 has a ΔG [14] of -9.09 kcal/mol.

B7: E. coli DNA polymerase IV (enzyme)
chain: MRKIIHVDMDCFFAAVEMRDNPALRDIPIAIGGSRERRGVISTANYPARKFGVRSAMPTGMALKLCPHLTLLPGRFDAYKEASNHIREIFSRYTSRIEPLSLDEAYLDVTDSVHCHGSATLIAQEIRQTIFNELQLTASAGVAPVKFLAKIASDMNKPNGQFVITPAEVPAFLQTLPLAKIPGVGKVSAAKLEAMGLRTCGDVQKCDLVMLLKRFGKFGRILWERSQGIDERDVNSERLRKSVGVERTMAEDIHHWSECEAIIERLYPELERRLAKVKPDLLIARQGVKLKFDDFQQTTQEHVWPRLNKADLIATARKTWDERRGGRGVRLVGLHVTLLDPQMERQLVLGL
notes: also called PolIV; Pol IV
Molecule B7 has a ΔG [12] of -9.09 kcal/mol.

For Ac-QLDLF-OH (also called Ac-Gln-Leu-Asp-Leu-Phe-OH) [P6 (AcQLDLF), listing 2 of 2 here], the ΔG [14] was -8.22 kcal/mol, the “times tighter binding than P1” value [18] was about 8 fold and the “IC50, Pol IV based biochemical assay (inhibition of β dependent Pol IV elongation)” value [19] was 4500 nM.

B8: P14, Ac-Gln-Cha-Asp-Leu-(3,4-di-Cl)Phe-OH (peptide)
peptide: Ac-Q[Cha]DL[Phe(3,4-Cl2)]-OH
SMILES: CC(=O)N[C@@H](CCC(N)=O)C(=O)N[C@@H](CC1CCCCC1)C(=O)N[C@@H](CC(=O)O)C(=O)N[C@@H](CC(C)C)C(=O)N[C@@H](Cc1ccc(Cl)c(Cl)c1)C(=O)O
notes: X stands for Cha; the substituted phenylalanine is written F; also called Ac-Q Cha DL diClF; Bu29
For B8, the IC50 [10] was 72 nM, the IC50 [11] was 77 nM and the ΔG [12] was -9.85 kcal/mol.

B9: P1, H-Arg-Gln-Leu-Val-Leu-Gly-Leu-OH (peptide)
peptide: H-RQLVLGL-OH
notes: also called RQLVLGL; natural Cter heptamer of E. coli DNA polymerase IV
In the case of B9, the IC50 [11] is reported as 8850 nM and the ΔG [12] is reported as -7.06 kcal/mol.
